In paper PMC2912450:

Biological target: His-tagged FliK (Salmonella) (UniProt P26416)
Assay: SPR

| Substance | Kd |
| --- | --- |
| FlhBc(N269A) (domain or fragment) | 10.5 µM |
| FlhBc(P270A) (domain or fragment) | 1.6 µM |
